Experimental findings from patent US20200108091A1, “GUT-PROTECTIVE EFFECT OF RIG-1/MAVS AND STING ACTIVATION” (MEMORIAL SLOAN-KETTERING CANCER CENTER, priority 2017, published 2020) are described below.

For the test, the system named is small intestinal organoids. Description: Ex vivo organoid culture of small intestine crypts. The class given is cell-based, mouse. The method, then: Isolation of intestinal epithelial crypts was performed as previously described (26). Briefly, after harvesting small intestines, the organs were opened longitudinally and washed. Small intestine was incubated in 10 mM ethylenediamine-tetraacetatic acid (EDTA) for 25 min (4° C.) to dissociate the crypts. The supernatant containing crypts was collected.
250 crypts per well were suspended in growth factor reduced Matrigel (Corning) (33% ENR-medium; 66% growth factor reduced Matrigel) at 4° C. Then, they were plated in delta-surface Nunc 24-well plates in 30 μL drops, each containing approximately 250 crypts. […]
To determine the effect of 3pRNA/interferon stimulatory DNA/rmIFN-β on organoid size and morphology, bright-field microscopy images were taken using a Zeiss Axiovision Observer microscope with a 5× objective lens after 5 or 7 days in culture. 2D area and perimeter were analyzed using border perimeter tracing of organoids found in four representative fields of each well using Image J software. For assessment of gene expression by quantitative (q) PCR, organoids were subjected to RNA extraction 24 hours after culture using Trizol reagent (Invitrogen) according to manufacturer's protocol. Isolated RNA was reverse-transcribed using the Quantitect Reverse Transcription Kit (Qiagen). […]

B1: recombinant IFN-β: recombinant murine (rm) IFN-β (20 U/ml; PBL (12400-1)) (protein, UniProt P01575 22-182, looked up)
Interferon beta: INYKQLQLQERTNIRKCQELLEQLNGKINLTYRADFKIPMEMTEKMQKSYTAFAIQEMLQNVFLVFRNNFSSTGWNETIVVRLLDELHQQTVFLKTVLEEKQEERLTWEMSSTALHLKSYYWRVQRYLKLMKYNSYAWMVVRAEIFRNFLIIRRLTRNFQN
B1: the number of organoids entry (7 days in culture, IFN-β 20 U/ml or α-IFNaR1 Ab 10 ug/ml) is on record as “Neither recombinant IFN-β nor IFNAR blockade could influence”. In addition, the organoid size entry (recombinant murine IFN-β 20 U/ml, 5 or 7 days in culture) was “increased organoid size”.
